Results on eleven proteins are retold here after patent US20090099029.

This data set addresses T1, Bovine, dephosphorylated, Myelin Basic Protein (MBP), P02687.
T1 chain: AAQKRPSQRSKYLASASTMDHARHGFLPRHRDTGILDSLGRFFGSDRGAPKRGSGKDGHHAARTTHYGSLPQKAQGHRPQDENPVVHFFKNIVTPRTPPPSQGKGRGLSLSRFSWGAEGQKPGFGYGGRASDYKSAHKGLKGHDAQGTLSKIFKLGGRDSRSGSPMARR

B1: DAPK2 (protein)
chain: MFQASMRSPNMEPFKQQKVEDFYDIGEELGSGQFAIVKKCREKSTGLEYAAKFIKKRQSRASRRGVSREEIEREVSILRQVLHHNVITLHDVYENRTDVVLILELVSGGELFDFLAQKESLSEEEATSFIKQILDGVNYLHTKKIAHFDLKPENIMLLDKNIPIPHIKLIDFGLAHEIEDGVEFKNIFGTPEFVAPEIVNYEPLGLEADMWSIGVITYILLSGASPFLGDTKQETLANITAVSYDFDEEFFSQTSELAKDFIRKLLVKETRKRLTIQEALRHPWITPVDNQQAMVRRESVVNLENFRKQYVRRRWKLSFSIVSLCNHLTRSLMKKVHLRPDEDLRNCESDTEEDIARRKALHPRRRSSTS
For B1, the “MBP Kinase Activity” value is recorded as “Negative”.

B2: CSNK2A2 (protein)
chain: MPGPAAGSRARVYAEVNSLRSREYWDYEAHVPSWGNQDDYQLVRKLGRGKYSEVFEAINITNNERVVVKILKPVKKKKIKREVKILENLRGGTNIIKLIDTVKDPVSKTPALVFEYINNTDFKQLYQILTDFDIRFYMYELLKALDYCHSKGIMHRDVKPHNVMIDHQQKKLRLIDWGLAEFYHPAQEYNVRVASRYFKGPELLVDYQMYDYSLDMWSLGCMLASMIFRREPFFHGQDNYDQLVRIAKVLGTEELYGYLKKYHIDLDPHFNDILGQHSRKRWENFIHSENRHLVSPEALDLLDKLLRYDHQQRLTAKEAMEHPYFYPVVKEQSQPCADNAVLSSGLTAAR
Consider B2, for which the “MBP Kinase Activity” value is listed as “Negative”.

B3: DMPK (protein)
chain: MSAEVRLRRLQQLVLDPGFLGLEPLLDLLLGVHQELGASELAQDKYVADFLQWAEPIVVRLKEVRLQRDDFEILKVIGRGAFSEVAVVKMKQTGQVYAMKIMNKWDMLKRGEVSCFREERDVLVNGDRRWITQLHFAFQDENYLYLVMEYYVGGDLLTLLSKFGERIPAEMARFYLAEIVMAIDSVHRLGYVHRDIKPDNILLDRCGHIRLADFGSCLKLRADGTVRSLVAVGTPDYLSPEILQAVGGGPGTGSYGPECDWWALGVFAYEMFYGQTPFYADSTAETYGKIVHYKEHLSLPLVDEGVPEEARDFIQRLLCPPETRLGRGGAGDFRTHPFFFGLDWDGLRDSVPPFTPDFEGATDTCNFDLVEDGLTAMVSGGGETLSDIREGAPLGVHLPFVGYSYSCMALRDSEVPGPTPMELEAEQLLEPHVQAPSLEPSVSPQDETAEVAVPAAVPAAEAEAEVTLRELQEALEEEVLTRQSLSREMEAIRTDNQNFASQLREAEARNRDLEAHVRQLQERMELLQAEGATAVTGVPSPRATDPPSHLDGPPAVAVGQCPLVGPGPMHRRHLLLPARVPRPGLSEALSLLLFAVVLSRAAALGCIGLVAHAGQLTAVWRRPGAARAP
Regarding B3, the “MBP Kinase Activity” value is “Negative”.

B4: CSNK1E(CK1eps) (protein)
chain: MELRVGNKYRLGRKIGSGSFGDIYLGANIASGEEVAIKLECVKTKHPQLHIESKFYKMMQGGVGIPSIKWCGAEGDYNVMVMELLGPSLEDLFNFCSRKFSLKTVLLLADQMISRIEYIHSKNFIHRDVKPDNFLMGLGKKGNLVYIIDFGLAKKYRDARTHQHIPYRENKNLTGTARYASINTHLGIEQSRRDDLESLGYVLMYFNLGSLPWQGLKAATKRQKYERISEKKMSTPIEVLCKGYPSEFSTYLNFCRSLRFDDKPDYSYLRQLFRNLFHRQGFSYDYVFDWNMLKFGAARNPEDVDRERREHEREERMGQLRGSATRALPPGPPTGATANRLRSAAEPVASTPASRIQPAGNTSPRAISRVDRERKVSMRLHRGAPANVSSSDLTGRQEVSRIPASQTSVPFDHLGK
B4: the “MBP Kinase Activity” value is on record as “Negative”.

B5: EPHA4 (protein)
chain: SRRRSKYSKAKQEADEEKHLNQGVRTYVDPFTYEDPNQAVREFAKEIDASCIKIEKVIGVGEFGEVCSGRLKVPGKREICVAIKTLKAGYTDKQRRDFLSEASIMGQFDHPNIIHLEGVVTKCKPVMIITEYMENGSLDAFLRKNDGRFTVIQLVGMLRGIGSGMKYLSDMSYVHRDLAARNILVNSNLVCKVSDFGMSRVLEDDPEAAYTTRGGKIPIRWTAPEAIAYRKFTSASDVWSYGIVMWEVMSYGERPYWDMSNQDVIKAIEEGYRLPPPMDCPIALHQLMLDCWQKERSDRPKFGQIVNMLDKLIRNPNSLKRTGTESSRPNTALLDPSSPEFSAVVSVGDWLQAIKMDRYKDNFTAAGYTTLEAVVHVNQEDLARIGITAITHQNKILSSVQAMRTQMQQMHGRMVPV
As for B5, the “MBP Kinase Activity” value is given as “Strong”.

B6: CSNK1D(CK1delta) (protein)
chain: MELRVGNRYRLGRKIGSGSFGDIYLGTDIAAGEEVAIKLECVKTKHPQLHIESKIYKMMQGGVGIPTIRWCGAEGDYNVMVMELLGPSLEDLFNFCSRKFSLKTVLLLADQMISRIEYIHSKNFIHRDVKPDNFLMGLGKKGNLVYIIDFGLAKKYRDARTHQHIPYRENKNLTGTARYASINTHLGIEQSRRDDLESLGYVLMYFNLGSLPWQGLKAATKRQKYERISEKKMSTPIEVLCKGYPSEFATYLNFCRSLRFDDKPDYSYLRQLFRNLFHRQGFSYDYVFDWNMLKFGASRAADDAERERRDREERLRHSRNPATRGLPSTASGRLRGTQEVAPPTPLTPTSHTANTSPRPVSGMERERKVSMRLHRGAPVNISSSDLTGRQDTSRMSTSQNSIPFEHHGK
For B6, the “MBP Kinase Activity” value is reported as “Negative”.

B7: DYRK3 (protein)
chain: MGGTARGPGRKDAGPPGAGLPPQQRRLGDGVYDTFMMIDETKCPPCSNVLCNPSEPPPPRRLNMTTEQFTGDHTQHFLDGGEMKVEQLFQEFGNRKSNTIQSDGISDSEKCSPTVSQGKSSDCLNTVKSNSSSKAPKVVPLTPEQALKQYKHHLTAYEKLEIINYPEIYFVGPNAKKRHGVIGGPNNGGYDDADGAYIHVPRDHLAYRYEVLKIIGKGSFGQVARVYDHKLRQYVALKMVRNEKRFHRQAAEEIRILEHLKKQDKTGSMNVIHMLESFTFRNHVCMAFELLSIDLYELIKKNKFQGFSVQLVRKFAQSILQSLDALHKNKIIHCDLKPENILLKHHGRSSTKVIDFGSSCFEYQKLYTYIQSRFYRAPEIILGSRYSTPIDIWSFGCILAELLTGQPLFPGEDEGDQLACMMELLGMPPPKLLEQSKRAKYFINSKGIPRYCSVTTQADGRVVLVGGRSRRGKKRGPPGSKDWGTALKGCDDYLFIEFLKRCLHWDPSARLTPAQALRHPWISKSVPRPLTTIDKVSGKRVVNPASAFQGLGSKLPPVVGIANKLKANLMSETNGSIPLCSVLPKLIS
Consider B7, for which the “MBP Kinase Activity” value is “Negative”.

B8: CSNK2A1(CK2alpha1) (protein)
chain: MSGPVPSRARVYTDVNTHRPREYWDYESHVVEWGNQDDYQLVRKLGRGKYSEVFEAINITNNEKVVVKILKPVKKKKIKREIKILENLRGGPNIITLADIVKDPVSRTPALVFEHVNNTDFKQLYQTLTDYDIRFYMYEILKALDYCHSMGIMHRDVKPHNVMIDHEHRKLRLIDWGLAEFYHPGQEYNVRVASRYFKGPELLVDYQMYDYSLDMWSLGCMLASMIFRKEPFFHGHDNYDQLVRIAKVLGTEDLYDYIDKYNIELDPRFNDILGRHSRKRWERFVHSENQHLVSPEALDFLDKLLRYDHQSRLTAREAMEHPYFYTVVKDQARMGSSSMPGGSTPVSSANMMSGISSVPTPSPLGPLAGSPVIAAANPLGMPVPAAAGAQQ
As for B8, the “MBP Kinase Activity” value is recorded as “Strong”.

B9: EPHA3 (protein)
chain: RFCGYKSKHGADEKRLHFGNGHLKLPGLRTYVDPHTYEDPTQAVHEFAKELDATNISIDKVVGAGEFGEVCSGRLKLPSKKEISVAIKTLKVGYTEKQRRDFLGEASIMGQFDHPNIIRLEGVVTKSKPVMIVTEYMENGSLDSFLRKHDAQFTVIQLVGMLRGIASGMKYLSDMGYVHRDLAARNILINSNLVCKVSDFGLSRVLEDDPEAAYTTRGGKIPIRWTSPEAIAYRKFTSASDVWSYGIVLWEVMSYGERPYWEMSNQDVIKAVDEGYRLPPPMDCPAALYQLMLDCWQKDRNNRPKFEQIVSILDKLIRNPGSLKIITSAAARPSNLLLDQSNVDITTFRTTGDWLNGVWTAHCKEIFTGVEYSSCDTIAKISTDDMKKVGVTVVGPQKKIISSIKALETQSKNGPVPV
B9: the “MBP Kinase Activity” value is on record as “Strong”.

B10: GRK4 (protein)
chain: MELENIVANSLLLKARQGGYGKKSGRSKKWKEILTLPPVSQCSELRHSIEKDYSSLCDKQPIGRRLFRQFCDTKPTLKRHIEFLDAVAEYEVADDEDRSDCGLSILDRFFNDKLAAPLPEIPPDVVTECRLGLKEENPSKKAFEECTRVAHNYLRGEPFEEYQESSYFSQFLQWKWLERQPVTKNTFRHYRVLGKGGFGEVCACQVRATGKMYACKKLQKKRIKKRKGEAMALNEKRILEKVQSRFVVSLAYAYETKDALCLVLTIMNGGDLKFHIYNLGNPGFDEQRAVFYAAELCCGLEDLQRERIVYRDLKPENILLDDRGHIRISDLGLATEIPEGQRVRGRVGTVGYMAPEVVNNEKYTFSPDWWGLGCLIYEMIQGHSPFKKYKEKVKWEEVDQRIKNDTEEYSEKFSEDAKSICRMLLTKNPSKRLGCRGEGAAGVKQHPVFKDINFRRLEANMLEPPFCPDPHAVYCKDVLDIEQFSVVKGIYLDTADEDFYARFATGCVSIPWQNEMIESGCFKDINKSESEEALPLDLDKNIHTPVSRPNRGFFYRLFRRGGCLTMVPSEKEVEPKQC
Turning to B10, the “MBP Kinase Activity” value is given as “Negative”.

B11: DAPK3(ZIPK) (protein)
chain: MSTFRQEDVEDHYEMGEELGSGQFAIVRKCRQKGTGKEYAAKFIKKRRLSSSRRGVSREEIEREVNILREIRHPNIITLHDIFENKTDVVLILELVSGGELFDFLAEKESLTEDEATQFLKQILDGVHYLHSKRIAHFDLKPENIMLLDKNVPNPRIKLIDFGIAHKIEAGNEFKNIFGTPEFVAPEIVNYEPLGLEADMWSIGVITYILLSGASPFLGETKQETLTNISAVNYDFDEEYFSNTSELAKDFIRRLLVKDPKRRMTIAQSLEHSWIKAIRRRNVRGEDSGRKPERRRLKTTRLKEYTIKSHSSLPPNNSYADFERFSKVLEEAAAAEEGLRELQRSRRLCHEDVEALAAIYEEKEAWYREESDSLGQDLRRLRQELLKTEALKRQAQEEAKGALLGTSGLKRRFSRLENRYEALAKQVASEMRFVQDLVRALEQEKLQGVECGLR
For B11, the “MBP Kinase Activity” value is “Negative”.
